# Source: publication PMC4990988, “Defective recognition of LC3B by mutant SQSTM1/p62 implicates impairment of autophagy as a pathogenic mechanism in ALS-FTLD” (Autophagy, 2016)
# B1: WT LIR peptide (residues 332 to 351 of human SQSTM1) (peptide)
# peptide: SGGDDDWTHLSSKEVDPSTG
# notes: source: synthetic peptide (PeptideSynthetics, purity > 98%)
# B2: LIR (L341V) peptide (residues 332 to 351 of human SQSTM1 with L341V) (peptide)
# peptide: SGGDDDWTHVSSKEVDPSTG
# notes: SQSTM1/p62, human, residues 332 to 351 with the ALS-associated L341V mutation; also called L341V-mutant LIR; mutant LIR; source: synthetic peptide (PeptideSynthetics, purity > 98%)
# Molecular target: LC3B (microtubule-associated protein 1 light chain 3 β) (human, UniProt Q9GZQ8 1-120)
# Assay: ITC; LIR peptide stock (350 µM) injected into LC3B in the cell, 298 K, 25 mM phosphate buffer, 150 mM NaCl, pH 7.5; one-site binding model
# Conditions: both partners purified
row,Binder,Kd [µM]
1,B1,3.2 ± 1.1
2,B2,10.9 ± 1.1
